The values below come from patent US5674835, “Papillomaviral expression inhibitors” (New England Medical Center Hospitals, Inc.).

Holding throughout (settings): tags: 13 N-terminal amino acids of lambda cII; partially purified from E. coli N6405; chain copies: 2
Series [1] has as its target T1, BPV-1 E2 C-terminal segment (cII-E2 fusion, pCOE2-1) (Bovine papillomavirus type 1, UniProt P03122 P03122:114-410).
T1 chain: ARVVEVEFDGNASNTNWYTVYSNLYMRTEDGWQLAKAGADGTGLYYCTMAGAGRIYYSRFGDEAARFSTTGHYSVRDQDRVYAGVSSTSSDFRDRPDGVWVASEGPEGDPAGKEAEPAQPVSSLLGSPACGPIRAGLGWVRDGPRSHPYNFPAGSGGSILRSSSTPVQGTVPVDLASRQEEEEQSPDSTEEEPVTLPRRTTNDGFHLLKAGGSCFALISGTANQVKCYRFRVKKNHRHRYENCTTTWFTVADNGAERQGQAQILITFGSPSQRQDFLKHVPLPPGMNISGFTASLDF
Nature of the series: competition; single strand did not block immunoprecipitation of dsDNA.

In series [2] the target is T1, BPV-1 E2 C-terminal segment (cII-E2 …). The series can be described thus: competition; about 1000 times more effective competitor than N2; DNA immunoprecipitation.
For series [3] the target is unchanged. The series can be described thus: competition; relative to N1; no consensus site.

With CGTCAAACCGTCTTCGGTGCTC (ssDNA) [single-stranded oligonucleotide with site IIIb], the binding result in series [1] is listed as “no binding”.
On to GCGCATAATCAGCTTAATTGGTG (ssDNA) [single-stranded oligonucleotide without E2 site], for which the binding result in series [1] was “no binding”.

B1: 23 bp URR fragment with E2 site IIIb (dsDNA)
DNA 1: CGTCAAACCGTCTTCGGTGCTC
DNA 2: GAGCACCGAAGACGGTTTGACG
As for B1, the binding signal in series [2] was roughly 1000 fold.

B2: 23 bp fragment without E2 site (dsDNA)
DNA 1: GCGCATAATCAGCTTAATTGGTG
DNA 2: CACCAATTAAGCTGATTATGCGC
With B2, the binding signal in series [3] is roughly 0.001 fold.
